Assay results as given in the supplement of paper PMC9876800.

Tested on: peptide library, one residue held at a place counted from the S/T acceptor
Test: relative phosphorylation of the sub-library (ratio to the mean residue at this position); human; higher = residue favoured
Outline: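 Purified recombinant kinases, either human or orthologue constructs, were incubated in 384-well plates with biotinylated degenerate peptide sub-libraries. Each sub-library fixed one residue at one position around a central Ser/Thr. Peptides at 50 μM and 50 μM ATP spiked with γ-32P-ATP were used for 90 min under kinase-specific conditions, and spots on streptavidin membranes were phosphorimaged and quantified by densitometry. Relative sub-library phosphorylation is expressed as a ratio to the mean residue at that position.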

Sequence of MASTL, construct: Full length (Q96GX5 whole entry, looked up): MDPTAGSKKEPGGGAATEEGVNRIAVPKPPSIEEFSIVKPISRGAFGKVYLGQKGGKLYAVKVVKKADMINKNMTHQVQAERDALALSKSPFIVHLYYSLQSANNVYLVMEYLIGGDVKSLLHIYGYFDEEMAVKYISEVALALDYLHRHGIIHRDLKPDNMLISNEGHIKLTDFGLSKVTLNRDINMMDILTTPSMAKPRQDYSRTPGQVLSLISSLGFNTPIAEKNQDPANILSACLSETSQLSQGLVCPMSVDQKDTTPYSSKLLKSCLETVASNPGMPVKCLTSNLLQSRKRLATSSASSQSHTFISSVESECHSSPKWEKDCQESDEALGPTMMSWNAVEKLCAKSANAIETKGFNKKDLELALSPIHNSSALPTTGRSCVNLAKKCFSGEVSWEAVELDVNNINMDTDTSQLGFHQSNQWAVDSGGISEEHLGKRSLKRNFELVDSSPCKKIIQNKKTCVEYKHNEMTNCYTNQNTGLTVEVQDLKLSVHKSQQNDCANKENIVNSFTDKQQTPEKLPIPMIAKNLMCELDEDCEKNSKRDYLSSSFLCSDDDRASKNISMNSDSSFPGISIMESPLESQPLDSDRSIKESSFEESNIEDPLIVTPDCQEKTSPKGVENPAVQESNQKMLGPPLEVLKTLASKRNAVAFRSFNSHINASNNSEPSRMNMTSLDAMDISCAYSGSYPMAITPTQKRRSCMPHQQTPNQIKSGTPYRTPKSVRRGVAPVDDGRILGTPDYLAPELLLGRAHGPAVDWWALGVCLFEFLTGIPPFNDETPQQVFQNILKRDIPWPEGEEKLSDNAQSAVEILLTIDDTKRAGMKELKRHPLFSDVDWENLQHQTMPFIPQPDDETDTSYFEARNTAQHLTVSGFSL
Sequence of MELK, construct: aa1-340 (Q14680 1-340, looked up): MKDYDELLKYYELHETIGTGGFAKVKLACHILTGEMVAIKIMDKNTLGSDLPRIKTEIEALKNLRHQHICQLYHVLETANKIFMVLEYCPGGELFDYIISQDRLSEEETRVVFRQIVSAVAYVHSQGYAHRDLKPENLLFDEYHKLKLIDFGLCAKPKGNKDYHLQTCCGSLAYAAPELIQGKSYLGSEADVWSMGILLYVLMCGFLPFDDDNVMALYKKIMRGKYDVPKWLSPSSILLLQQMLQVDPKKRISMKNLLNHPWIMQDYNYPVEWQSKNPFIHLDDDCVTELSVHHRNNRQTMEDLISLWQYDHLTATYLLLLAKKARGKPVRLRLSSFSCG
Sequence of MOK, construct: aa1-343 (Q9UQ07 1-343, looked up): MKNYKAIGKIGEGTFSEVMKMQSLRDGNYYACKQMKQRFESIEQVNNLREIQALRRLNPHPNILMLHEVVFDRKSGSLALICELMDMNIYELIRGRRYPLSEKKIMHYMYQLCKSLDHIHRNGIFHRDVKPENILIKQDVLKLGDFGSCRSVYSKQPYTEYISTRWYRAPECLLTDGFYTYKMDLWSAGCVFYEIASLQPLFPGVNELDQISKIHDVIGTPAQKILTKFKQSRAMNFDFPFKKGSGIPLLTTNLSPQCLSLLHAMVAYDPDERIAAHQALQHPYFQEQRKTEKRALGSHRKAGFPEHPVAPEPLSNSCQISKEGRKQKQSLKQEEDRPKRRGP

MASTL, construct: Full length (from UniProt Q96GX5)
relative phosphorylation
Details	at +1	at +2	at +3	at +4	at -1	at -2	at -3	at -4	at -5
A fixed	0.775	1.04	0.823	1.03	0.921	0.862	0.89	1.04	1.22
D fixed	0.64	0.706	0.711	0.972	0.826	0.719	0.63	0.69	0.66
E fixed	0.62	0.693	0.766	0.951	0.769	0.611	0.679	0.717	0.639
F fixed	1.95	1.38	1.3	0.962	0.948	1.74	1.13	1.02	1
G fixed	1.59	0.711	1.14	0.867	1.46	1.13	1.02	1.2	1.28
H fixed	0.772	0.99	0.949	1.07	1.01	1.51	1.43	1.31	1.47
I fixed	1.21	1.23	1.19	0.878	0.543	0.585	0.66	0.696	0.841
K fixed	0.534	0.531	0.573	0.841	0.87	0.579	0.927	0.956	0.889
L fixed	1.06	0.959	1.1	0.941	1.06	0.579	0.715	0.656	0.941
M fixed	1.71	1.15	1.15	1.02	1.25	0.846	1	0.938	0.94
N fixed	0.789	0.95	0.749	1.05	1.06	1.16	1.03	1.34	1.05
P fixed	0.664	0.65	0.704	1.31	1.59	0.804	1.01	0.965	1.07
Q fixed	1.09	0.761	0.804	1.09	1.15	0.839	0.985	0.913	0.841
R fixed	0.614	0.579	0.555	0.726	0.889	0.767	1.55	1	0.953
V fixed	0.944	1.16	0.875	0.831	0.649	0.558	0.678	0.703	0.909
W fixed	1.03	1.6	2.11	1.28	0.913	1.82	1.23	1.35	1.27
Y fixed	1.01	1.9	1.5	1.18	1.1	1.9	1.42	1.49	1.03
pThr fixed	1	0.912	0.984	1.27	0.833	0.827	0.939	0.844	0.94
pTyr fixed	0.8	1.07	0.973	0.944	0.711	0.771	0.812	0.834	0.784

MELK, construct: aa1-340 (from UniProt Q14680)
relative phosphorylation
Details	at +1	at +2	at +3	at +4	at -1	at -2	at -3	at -4	at -5
A fixed	1.02	0.961	0.744	0.748	0.777	1.24	0.757	1.12	0.927
D fixed	0.349	0.324	0.902	0.634	0.495	0.251	0.225	0.47	0.446
E fixed	0.447	0.274	0.436	0.558	0.469	0.305	0.256	0.658	0.392
F fixed	2.31	0.923	1.21	0.987	0.78	1.07	0.478	0.674	1.18
G fixed	0.949	0.79	0.855	1.02	0.711	0.78	0.707	1.24	0.884
H fixed	0.994	1.02	1.47	1.04	1.25	1.33	1.18	1.11	0.871
I fixed	0.511	1.64	0.77	1.26	0.783	0.667	0.347	0.669	1.13
K fixed	1.38	0.858	0.938	1.03	1.89	1.63	2.74	2.08	1.49
L fixed	0.752	1.79	1.02	1.84	1.07	0.681	0.454	0.761	1.76
M fixed	1.14	1.68	0.986	1.1	1.1	0.951	0.484	0.903	1.22
N fixed	0.837	0.873	1.48	0.988	1.19	1.09	0.742	1.02	0.711
P fixed	0.171	0.598	0.553	1.23	1.07	0.419	0.751	1.01	1.03
Q fixed	1.54	0.723	1.05	0.952	1.12	1.42	0.784	0.844	0.902
R fixed	1.72	1.28	1.12	1.03	1.71	1.79	5.37	1.81	1.67
V fixed	0.705	1.54	0.79	1.05	0.885	0.893	0.394	0.701	0.814
W fixed	0.959	0.808	1.69	0.848	0.601	1.15	0.676	1.1	0.766
Y fixed	1.22	0.935	1	0.673	1.09	1.33	0.653	0.831	0.806
pThr fixed	0.647	0.364	0.33	0.662	0.311	0.354	0.33	0.438	0.508
pTyr fixed	0.551	0.407	0.409	0.425	0.709	0.295	0.332	0.382	0.517

MKNK1, construct: Full length (D165-205) (from UniProt Q9BUB5)
relative phosphorylation
Details	at +1	at +2	at +3	at +4	at -1	at -2	at -3	at -4	at -5
A fixed	0.571	0.643	0.663	0.758	0.958	0.862	0.744	0.882	1.25
D fixed	0.289	0.373	0.434	0.925	0.355	0.324	0.281	0.361	0.43
E fixed	0.603	0.351	0.429	0.903	0.342	0.279	0.315	0.37	0.404
F fixed	1.41	0.677	0.771	0.706	0.395	0.433	0.392	0.676	0.727
G fixed	0.464	0.534	1.49	0.967	1.12	0.736	1.22	1.3	0.945
H fixed	0.892	1.83	1.23	1.13	0.897	0.748	1.04	1.12	0.866
I fixed	1.05	0.875	0.597	0.687	0.304	0.372	0.286	0.625	1
K fixed	1.04	1.03	2.18	1.82	3.23	2.45	3.62	2.16	1.58
L fixed	0.991	0.907	1.01	0.722	0.602	0.519	0.394	0.751	1.2
M fixed	1.86	0.997	0.886	0.805	0.619	0.395	0.494	0.784	0.97
N fixed	0.651	0.817	0.725	1.12	0.905	1.03	0.96	1.07	0.872
P fixed	0.345	0.387	0.806	1.3	1.87	0.55	1.4	1.28	1.25
Q fixed	1.8	0.794	0.856	1.29	0.991	0.747	0.926	0.83	0.762
R fixed	1.34	1.9	1.95	1.49	2.91	5.62	3.5	2.25	1.66
V fixed	0.995	0.781	0.506	0.704	0.429	0.521	0.318	0.76	1.25
W fixed	1.2	1.79	1.17	0.826	0.414	0.685	0.549	0.894	0.832
Y fixed	1.49	2.32	1.3	0.845	0.655	0.725	0.557	0.891	1.01
pThr fixed	0.668	0.629	0.564	1.11	0.278	0.387	0.511	0.639	0.677
pTyr fixed	0.868	1.32	0.756	1.46	0.294	0.373	0.447	0.596	0.942

MOK, construct: aa1-343 (from UniProt Q9UQ07)
relative phosphorylation
Details	at +1	at +2	at +3	at +4	at -1	at -2	at -3	at -4	at -5
A fixed	2.2	1.04	1.2	0.799	1.12	1.03	0.724	0.79	0.816
D fixed	0.137	0.59	0.511	0.519	0.269	0.168	0.231	0.441	0.526
E fixed	0.15	0.672	0.507	0.506	0.332	0.208	0.246	0.506	0.552
F fixed	0.2	0.836	1.02	0.891	0.786	0.328	0.314	0.739	1.02
G fixed	1.23	1.51	1.52	1.34	1.36	0.824	0.645	0.89	1.04
H fixed	0.389	1.44	1.28	1.09	1.19	0.418	0.564	0.862	1.09
I fixed	0.215	0.624	0.704	0.855	0.511	0.863	0.54	0.73	0.865
K fixed	0.574	1.15	1.15	1.44	1.61	0.8	1.27	1.43	1.36
L fixed	0.204	0.822	0.848	0.904	0.712	1.2	0.587	0.739	0.761
M fixed	0.253	0.935	0.967	1.05	1.22	0.675	0.501	0.946	0.903
N fixed	0.32	0.999	0.93	1.06	0.672	0.498	0.452	0.628	0.784
P fixed	6.41	1.12	1.13	1.11	1.33	5.97	1.26	0.96	1.11
Q fixed	0.567	1.21	0.857	0.964	1	0.629	0.563	0.818	0.916
R fixed	3.21	1.58	1.53	1.74	2.2	1.81	7.98	4.34	2.3
V fixed	0.515	0.551	0.668	0.801	0.631	0.918	0.441	0.622	0.622
W fixed	0.215	0.884	0.985	1.02	0.976	0.331	0.316	0.811	1.02
Y fixed	0.21	1.04	1.19	0.921	1.08	0.323	0.377	0.745	1.31
pThr fixed	0.333	0.394	0.486	0.512	0.236	0.431	0.358	0.532	0.775
pTyr fixed	0.334	0.447	0.651	0.45	0.354	0.268	0.329	0.473	0.804
